Laboratory results: article PMC5839066

Molecular target: RFP-p62 (UniProt Q13501)
Test: co-IP; COS-7 cells cotransfected with HTT fragment and RFP-p62, 100 nM bafilomycin for 4 h; lysates in SDP buffer; p62 immunoprecipitated (anti-p62 MBL PM045) overnight at 4 °C; co-precipitated HTT blotted and normalised to input

## HTT aa1-1212 138Q-C6R (domain or fragment)
  fold binding relative to cleavable mHTT: 2 fold
